These results are taken from article PMC9127807, “Echinocandins Localized to the Target-Harboring Cell Surface Are Not Degraded but Those Entering the Vacuole Are” (ACS Chemical Biology, 2022).

In one data set the test system is C. albicans SC5314 cells. Particulars: for percentage degraded: 24 h, 10 μM, 30 °C, RP-HPLC of lysates.
Data set [1] relates to C. albicans SC5314 cell lysate. Particulars: incubated with lysate of C. albicans SC5314 in buffer for 24 h; RP-HPLC.
Experimental: C. albicans SC5314 cells were streaked from glycerol stocks onto YPAD agar plates and grown for 24 h at 30 °C. Colonies were grown in tubes in 3 mL of YPAD broth for 24 h at 30 °C with shaking. Cultures were diluted 1:50 and incubated in 5 mL of YPAD broth for 3 h at 30 °C with shaking until log-phase growth was observed. Cultures were then centrifuged (4000 rpm, 3 min), washed with PBS buffer, and resuspended in 1 mL of PBS buffer or YPAD. Cells were incubated with TMR-based probes (1 or 3) at a final concentration of 10 μM at 30 °C with shaking in the dark for 24 h. After washing three times with PBS, cells were resuspended in 75 μL of TNE buffer (10 mM Tris, 100 mM NaCl, and 1 mM ethylenediaminetetraacetic acid, pH 8.0) in a 1.5 mL Eppendorf tube, and 0.5 mm diameter beads were added to the yeast solution. The mixture was agitated on a vortex at maximum speed for 5 min. […] The samples were analyzed using analytical reverse-phase HPLC at a 550 nm wavelength. HPLC conditions: mobile phase: acetonitrile in H2O (containing 0.1% trifluoroacetic acid (v/v)), gradient from 10 to 90%; flow rate: 1 mL/min; absorbance wavelength: 550 nm. […] The percentages of intact echinocandin were determined using the area calculation function available in the Hitachi Primaide Software and are presented as means (two replicates) ± standard deviation (SD).

Several values for one entry are separate records, joined by “and”; a condition that tells them apart may be missing. Equal values may be shown once. Read-outs that look alike come from different tables or passages of the source.

Experimental for C. albicans SC5314 cells: C. albicans SC5314 cells were streaked from glycerol stocks onto YPAD agar plates and grown for 24 h at 30 °C. Colonies were grown in tubes in 3 mL of YPAD broth for 24 h at 30 °C with shaking. Cultures were diluted 1:50 and incubated in 5 mL of YPAD broth for 3 h at 30 °C with shaking until log-phase growth was observed. Cultures were then centrifuged (4000 rpm, 3 min), washed with PBS buffer, and resuspended in 1 mL of PBS buffer or YPAD. Cells were incubated with TMR-based probes (1 or 3) at a final concentration of 10 μM at 30 °C with shaking in the dark for 24 h. After washing three times with PBS, cells were resuspended in 75 μL of TNE buffer (10 mM Tris, 100 mM NaCl, and 1 mM ethylenediaminetetraacetic acid, pH 8.0) in a 1.5 mL Eppendorf tube, and 0.5 mm diameter beads were added to the yeast solution. The mixture was agitated on a vortex at maximum speed for 5 min. Next, 200 μL of 2% Triton X-100 in TNE buffer (v/v) was added to the agitated solution, and then the mixture was sonicated for 15 min. To clarify the yeast lysate, the mixture was centrifuged twice (16 000g, 20 min), and the supernatant was removed and filtered using a 0.22 μm syringe filter. The samples were analyzed using analytical reverse-phase HPLC at a 550 nm wavelength. HPLC conditions: mobile phase: acetonitrile in H2O (containing 0.1% trifluoroacetic acid (v/v)), gradient from 10 to 90%; flow rate: 1 mL/min; absorbance wavelength: 550 nm. Each sample was tested in two independent sets of experiments. The percentages of intact echinocandin were determined using the area calculation function available in the Hitachi Primaide Software and are presented as means (two replicates) ± standard deviation (SD).

`CC[C@H](C)C[C@H](C)CCCCCCCCC(=O)N[C@H]1C[C@@H](O)[C@@H](NCCN)NC(=O)[C@@H]2[C@@H](O)CCN2C(=O)[C@H]([C@H](O)CCN)NC(=O)[C@H]([C@H](O)[C@@H](O)c2ccc(OCc3cn(CCCNC(=O)c4ccc(-c5c6ccc(=[N+](C)C)cc-6oc6cc(N(C)C)ccc56)c(C(=O)[O-])c4)nn3)cc2)NC(=O)[C@@H]2C[C@@H](O)CN2C(=O)[C@H]([C@@H](C)O)NC1=O` [Probe 1]: the percentage degraded entry is “approximately 70%” with C. albicans SC5314 cells (cells in nutrient-free PBS buffer) and “approximately 40%” with C. albicans SC5314 cells (cells in nutrient-rich YPAD medium). Moreover, the percentage intact in the data set with C. albicans SC5314 cells (control: 5 min incubation with the cells in PBS, RP-HPLC) was ~80%; in data set [1], 78% and ~80%.
